Experimental data as given in patent publication US20070111258A1, “Compositions and methods for modulating the acute phase response” (priority 2005, published 2007).

Legend:
human CRP promoter = assay: Human CRP promoter luciferase reporter in H2.35 cells; format: cell-based
Protocol: (§1) FIG. 10 depicts activation of expression of APR genes in vivo. (A) The nuclear form of CREBH or ATF6 activates expression of the endogenous SAP mRNA in mice. Northern blot analysis of the endogenous SAP mRNA in mice injected with vector expressing the nuclear form of ATF6 (ATF6 p50) or CREBH (CREBH-N). Wild-type C57BL/6J mice at 3 months of age were injected with 80 μg plasmid DNA expressing ATF6 p50, CREBH-N or empty vector DNA through hydrodynamic plasmid DNA tail-vein injection (Miao et al. 2004). Liver samples were collected from mice at 36 hours after injection, and were subjected to Northern blot analysis to detect the murine SAP mRNA levels. Experiments were performed at least 3 times and representative data is shown. (B-C) Nuclear forms of CREBH and ATF6 act synergistically to induce transcription from the human CRP promoter and the UPRE motif. To detect synergistic effects of CREBH and ATF6 on expression of the reporter, vector DNA (15 ng control vector, 10 ng CREBH- and/or 15 ng AFT6-expression vector) was mixed with 100 ng reporter construct and 150 ng pcDNA3-lacZ for transfection of H2.35 cells in one well of a 6-well plate. The amount of luciferase activity was normalized to the amount of β-galactosidase activity.
FIG. 11 depicts the synergistic interaction of CREBH with ATF6 to activate transcription of the major APR genes. (A) Luciferase reporter analysis of trans-activation effects of CREBH on promoters of the murine SAP gene and the human CRP gene in H2.35 cells. H2.35 cells in a 35 mm collagen-coated plate were co-transfected with a control vector or a CREBH expression vector (0.25 μg), the luciferase reporter (0.6 μg) and pcDNA3-LacZ (0.25 μg), and were then cultured in the absence or presence of Tm (5 μg/ml) for 10 hours. (B) CREBH-DN efficiently suppresses CREBH trans-activation on the murine SAP and the human CRP promoters. H2.35 cells were co-transfected with the luciferase reporter construct and a control vector or a vector expressing CREBH-DN, and were then cultured in the absence or presence of Tm (5 μg/ml) for 10 hours. (C) Interaction between ATF6 and CREBH was determined by IP-Western blot analysis. 293T cells were transfected with a control vector or a vector expressing the nuclear/cleaved form of CREBH, and were then cultured in the absence or presence of Tm for 8 hours. Total cell lysates were immunoprecipated by using an anti-human ATF6 polyclonal antibody or an anti-flag antibody and were then subjected to Western blot analysis by using anti-flag antibody or anti-human ATF6 antibody. Expression levels of CREBH in the transfected cells were determined by Western blot analysis of total cell lysates using the anti-flag antibody (lower panel). (D) Luciferase reporter analysis showing trans-activation effects of the nuclear forms of ATF6 or CREBH on the murine SAP and human CRP promoters in H2.35 cells. H2.35 cells in a 35 mm collagen-coated plate were co-transfected with a vector expressing ATF6 p50 or CREBH-N (0.25 μg), the luciferase reporter (0.6 μg) and pcDNA3-LacZ (0.25 μg). (E-F) Luciferase reporter analysis showing synergistic effects of CREBH and ATF6 on transcriptional induction from the murine SAP promoter (E), and the human CRP promoter (F) in H2.35 cells. […]

murine SAP promoter = assay: Murine SAP promoter luciferase reporter in H2.35 cells; format: cell-based
Protocol: FIG. 11 depicts the synergistic interaction of CREBH with ATF6 to activate transcription of the major APR genes. (A) Luciferase reporter analysis of trans-activation effects of CREBH on promoters of the murine SAP gene and the human CRP gene in H2.35 cells. H2.35 cells in a 35 mm collagen-coated plate were co-transfected with a control vector or a CREBH expression vector (0.25 μg), the luciferase reporter (0.6 μg) and pcDNA3-LacZ (0.25 μg), and were then cultured in the absence or presence of Tm (5 μg/ml) for 10 hours. (B) CREBH-DN efficiently suppresses CREBH trans-activation on the murine SAP and the human CRP promoters. H2.35 cells were co-transfected with the luciferase reporter construct and a control vector or a vector expressing CREBH-DN, and were then cultured in the absence or presence of Tm (5 μg/ml) for 10 hours. (C) Interaction between ATF6 and CREBH was determined by IP-Western blot analysis. 293T cells were transfected with a control vector or a vector expressing the nuclear/cleaved form of CREBH, and were then cultured in the absence or presence of Tm for 8 hours. Total cell lysates were immunoprecipated by using an anti-human ATF6 polyclonal antibody or an anti-flag antibody and were then subjected to Western blot analysis by using anti-flag antibody or anti-human ATF6 antibody. Expression levels of CREBH in the transfected cells were determined by Western blot analysis of total cell lysates using the anti-flag antibody (lower panel). (D) Luciferase reporter analysis showing trans-activation effects of the nuclear forms of ATF6 or CREBH on the murine SAP and human CRP promoters in H2.35 cells. H2.35 cells in a 35 mm collagen-coated plate were co-transfected with a vector expressing ATF6 p50 or CREBH-N (0.25 μg), the luciferase reporter (0.6 μg) and pcDNA3-LacZ (0.25 μg). (E-F) Luciferase reporter analysis showing synergistic effects of CREBH and ATF6 on transcriptional induction from the murine SAP promoter (E), and the human CRP promoter (F) in H2.35 cells. To detect synergistic effects of CREBH and ATF6 on reporter gene expression, vector DNA (25 ng control vector, 20 ng CREBH- and/or 25 ng ATF6-expression vector) was mixed with 100 ng reporter construct and 150 ng pcDNA3-lacZ for transfection of H2.35 cells in a 35 mm collagen-coated plate.
Plasmids, pME18S, pME-CREBH Full and pME-CRE1H d™ were kindly provided by Dr. Sumio Sugano (Institute of Medical Science, University of Tokyo, Japan) (Omori et al., 2001). Plasmid pFlag-CREBH Full that expresses a full-length CREBH (amino acids 1-455) was constructed by insertion of a PCR product from pME-CREBH Full into expression vector pFlag-CMV-4 between EcoR I and BamH I. Vector pFlag-CMV-4 is designed for stable, cytoplasmic expression of N-terminal flag fusion proteins in mammalian cells (purchased from Sigma-Aldrich). Plasmid pFlag-CREBH-ΔC that expresses the nuclear form of CREBH (amino acids 1-320) was constructed by insertion of a PCR product from pME-CREBH d™ into pFlag-CMV-4 between EcoR I and BamH I. Plasmid pFlag-CREBH-DN that expresses only the CREBH bZIP domain (amino acids 209-320) was constructed by insertion of a PCR product from pME-CREBH Full into pFlag-CMV-4 between EcoR I and BamH I. The reporter plasmid containing the luciferase gene under control of the human CRP gene, pGL3-CRP, was constructed by insertion of a 637 bp fragment containing 5′-flanking and promoter region of the human CRP gene into luciferase reporter vector pGL3-basic (purchased from Promega, Madison, Wis.) between Sac I and Xho I. The 637 bp 5′-flanking fragment of the human CRP gene was amplified from human genomic DNA by using a forward primer: 5′-[…]-3′; and a reverse primer 5′-[…]-3′. The reporter plasmid containing the luciferase gene under control of the mouse SAP gene, pGL3-SAP, was constructed by insertion of an 863 bp fragment containing 5′-flanking and promoter region of the mouse SAP gene into pGL3-basic between Xho I and Hind III. […]

UPRE motif [1] = assay: UPRE luciferase reporter analysis in COS7 cells; format: cell-based; details: for activation of luciferase expression from UPRE reporter relative to vector control: absence of Tm
UPRE motif [2] = assay: UPRE luciferase reporter in H2.35 cells; format: cell-based
Protocol: as §1, with “The amount of luciferase activity was normalized to the amount of β-galactosidase activity.” left out
At 36 h post transfection, transfected cells were lysed and assayed for luciferase and β-galactosidase activity by using a Tropix Luciferase/β-Galactosidase Dual Light. […] Photons were detected in an Optima II Luminator (MGM Instruments). […]

murine SAP mRNA = assay: Endogenous SAP mRNA in liver after hydrodynamic plasmid DNA tail-vein injection (Northern blot); format: in vivo, mouse; details: wild-type mice; 80 μg plasmid DNA tail vein injection; 36 hours
Protocol: as §1

[3] = H2.35 cells, Tm 5 μg/ml 10 hours, endogenous CREBH
[4] = co-expression with ATF6 p50, absence or presence of ER stress
[5] = co-expression with full-length or cleaved CREBH, absence or presence of ER stress

Molecule	expression of luciferase under control of the human CRP promoter (human CRP promoter; H2.35 cells, expression of CREBH)	expression of luciferase from the SAP reporter relative to vector control (murine SAP promoter; H2.35 cells, Tm 5 μg/ml 10 hours)	expression of luciferase from the SAP reporter relative to vector control (murine SAP promoter; H2.35 cells, without Tm)	activation of luciferase expression from UPRE reporter relative to vector control (UPRE motif [1])	activation of luciferase expression from UPRE reporter (UPRE motif [1]; after Tm treatment, 10 hours)	ATF6-mediated trans-activation on the UPRE reporter (UPRE motif [2]; co-expression with ATF6 p50)	CREBH-induced reporter gene expression, UPRE reporter (UPRE motif [2]; co-expression with cleaved CREBH)	luciferase expression from the human CRP promoter in response to ER stress (human CRP promoter; [3])	ATF6-mediated trans-activation on the CRP reporter (human CRP promoter; [4])	CREBH-induced reporter gene expression, CRP reporter (human CRP promoter; [5])	luciferase expression from the murine SAP promoter in response to ER stress (murine SAP promoter; [3])	ATF6-mediated trans-activation on the SAP reporter (murine SAP promoter; [4])	CREBH-induced reporter gene expression, SAP reporter (murine SAP promoter; [5])	murine SAP mRNA in the liver compared to control vector (murine SAP mRNA)	expression of luciferase from the CRP reporter compared to the controls (human CRP promoter; H2.35 cells)
CREBH-F: flag-tagged full-length CREBH (amino acids 1-455) expressed from a transfected vector (protein, UniProt Q68CJ9 1-461, looked up, full-length Flag tag, flag-tagged full-length CREBH (amino acids 1-455) expressed from a transfected vector) MNTDLAAGKMASAACSMDPIDSFELLDLLFDRQDGILRHVELGEGWGHVKDQQVLPNPDSDDFLSSILGSGDSLPSSPLWSPEGSDSGISEDLPSDPQDTPPRSGPATSPAGCHPAQPGKGPCLSYHPGNSCSTTTPGPVIQVPEASVTIDLEMWSPGGRICAEKPADPVDLSPRCNLTVKDLLLSGSSGDLQQHHLGASYLLRPGAGHCQELVLTEDEKKLLAKEGITLPTQLPLTKYEERVLKKIRRKIRNKQSAQESRKKKKEYIDGLETRMSACTAQNQELQRKVLHLEKQNLSLLEQLKKLQAIVVQSTSKSAQTGTCVAVLLLSFALIILPSISPFGPNKTESPGDFAPVRVFSRTLHNDAASRVAADAVPGSEAPGPRPEADTTREESPGSPGADWGFQDTANLTNSTEELDNATLVLRNATEGLGQVALLDWVAPGPSTGSGRAGLEAAGDEL	significantly activated	approximately 14 fold	approximately 2.5 fold	approximately 2 fold	more than 10 fold										
CREBH-DN: dominant negative truncated CREBH, only the bZIP domain (amino acids 209-320), expressed from plasmid pFlag-CREBH-DN (protein, UniProt Q68CJ9 209-320, looked up, fragment, bZIP domain Flag tag, dominant negative truncated CREBH, only the bZIP domain (amino acids 209-320), expressed from plasmid pFlag-CREBH-DN) HCQELVLTEDEKKLLAKEGITLPTQLPLTKYEERVLKKIRRKIRNKQSAQESRKKKKEYIDGLETRMSACTAQNQELQRKVLHLEKQNLSLLEQLKKLQAIVVQSTSKSAQT						efficiently suppressed ATF6-mediated trans-activation	significantly suppressed the ability for CREBH to induce reporter gene expression	efficiently suppressed luciferase expression	efficiently suppressed ATF6-mediated trans-activation	significantly suppressed the ability for CREBH to induce reporter gene expression	efficiently suppressed luciferase expression	efficiently suppressed ATF6-mediated trans-activation	significantly suppressed the ability for CREBH to induce reporter gene expression		
CREBH-N: nuclear/cleaved form of CREBH (amino acids 1-320) expressed from a vector (protein, UniProt Q68CJ9 1-320, looked up, fragment) MNTDLAAGKMASAACSMDPIDSFELLDLLFDRQDGILRHVELGEGWGHVKDQQVLPNPDSDDFLSSILGSGDSLPSSPLWSPEGSDSGISEDLPSDPQDTPPRSGPATSPAGCHPAQPGKGPCLSYHPGNSCSTTTPGPVIQVPEASVTIDLEMWSPGGRICAEKPADPVDLSPRCNLTVKDLLLSGSSGDLQQHHLGASYLLRPGAGHCQELVLTEDEKKLLAKEGITLPTQLPLTKYEERVLKKIRRKIRNKQSAQESRKKKKEYIDGLETRMSACTAQNQELQRKVLHLEKQNLSLLEQLKKLQAIVVQSTSKSAQT			approximately 16 fold	approximately 18 fold										higher levels of the murine SAP mRNA	~11 fold
